Patent EP4696714A1, “PREPARATION METHOD FOR NANOBODY TARGETING TISSUE FACTOR AND CONJUGATE AND USE THEREOF” (Fudan University, priority 2023, dated 2024)
Where a chain is given by its changes, count along the chain named. Read-outs that look alike come from different tables or passages of the source.

Legend:
[1] = compared with MMDX and doxorubicin; cited from earlier work
[2] = tested on: 18 human tumor cell lines; details: average against 18 human tumor cell lines; cited from earlier work
[3] = biological target: T1, TF on the surface of tumor cells (MDA-MB-231, HPAF-II, HCC1806, BxPC3, HCC44, PC9, H1975 and other … (UniProt P13726 33-295, limits assumed)); assay: flow cytometry on MDA-MB-231 cells, PE-labeled secondary antibody
T1 construct: whole, on cells; the cell lines are human tumour lines; also called TF on cell surface; tumor cell surface TF

[4] = biological target: T2, human TF extracellular domain protein (TF-ECD, Met 1-Glu 251) (human, UniProt P13726 33-251); assay: ForteBio OCTET R2; His-tagged antigen on NTA sensor, nanobody-Fc 25-1.56 nM in solution, 25°C
T2 construct: range 1-251; also called human TF-ECD; not shown: His tag (protein captured on an NTA sensor as 'FDYKSD-01-His')

[5] = biological target: T2, human TF extracellular domain protein …; assay: ForteBio OCTET R2 (called SPR), method of Example 2
[6] = biological target: T1, TF on the surface of tumor cells …; assay: cell-based or functional assay
[7] = tested on: HCC1954 mammary pad xenograft; assay: HCC1954 mammary pad xenograft experiment; type: in vivo; details: once a week, twice in total
[8] = tested on: KRAS^G12D pancreatic cancer HPAF-II xenograft tumor; assay: Pancreatic cancer HPAF-II xenograft model; type: in vivo, Balb/c nude mice; details: 3 mg/kg, single-dose, tail vein
Method: Pancreatic ductal adenocarcinoma (PDAC) HPAF-II cells in logarithmic growth phase were subcutaneously inoculated into the bank of 5-week-old female Balb/c nude mice (purchased from Shanghai Sippr-BK Laboratory Animal Co., Ltd.) at a density of 2.5×10^6 cells per 200 µL serum-free medium. When tumor volume reached 100-200 mm^3, animals were randomly grouped, 8 tumors per group. The preferred TF-NDCs such as 4-A02-MMAE, 4-A02-ABD-MMAE were administered via tail vein injection at 3 mg/kg or 1 mg/kg on the day of grouping, with hIgG1-MMAE as the negative control. Only one dose was administered throughout the experiment. Tumor volume and mouse body weight were measured twice a week to plot growth curves. Tumor volume (V) was calculated using the formula: V = 1/2 × a × b^2, where a and b represent tumor length and width, respectively.

[9] = biological target: T1, TF on the surface of tumor cells …; assay: cell-based or functional assay; remark: listed apart in the source

## COc1cccc2c1C(=O)c1c(O)c3c(c(O)c1C2=O)C[C@@](O)(C(=O)CO)C[C@@H]3O[C@H]1C[C@H]2[C@H](O[C@@H]3[C@@H](OC)OCCN32)[C@H](C)O1 [PNU-159682]
[1]
  increase in activity: 3000 folds

## CN[C@H](C(=O)N[C@H](C(=O)N(C)[C@H](/C=C(\C)C(=O)O)C(C)C)C(C)(C)C)C(C)(C)c1ccccc1 [Taltobulin]
[2]
  IC50: 2.5 nM

B1: F1-A01-FC1 (chimeric nanobody: F1-A01 VHH fused with human Fc mutant fragment FC1) (Fc fusion)
chain: EVQLVESGGGLVQAGGSLRLSCAASGRAFSAYAMGWFRQAPGKEREFVAAISWSGGSTYYADSVRGRFTISRDNTKNTVYLQMNSLKPEDTAVYYCNADSLLSLLDGSRGGPGTDSGSWGQGTQVTVSSEPKSSDKTHTCPPCPAPEFEGGPSVFLFPPKPKDTLMISRTPEVTCVVVDVSHEDPEVKFNWYVDGVEVHNAKTKPREEQYNSTYRVVSVLTVLHQDWLNGKEYKCKVSNKALPASIEKTISKAKGQPREPQVYTLPPSRDELTKNQVSLTCLVKGFYPSDIAVEWESNGQPENNYKTTPPVLDSDGSFFLYSKLTVDKSRWQQGNVFSCSVMHEALHNHYTQKSLSLSPGK
notes: it is built from the VHH and FC1 as in 4-A02-FC1
[3]
  EC50: 750 ng/mL
[4]
  Kd: 4.37 nM

B2: original nanobody 4A02 (parental antibody 4A02, as comparator in Examples 11 and 12) (Fc fusion)
VHH: QVQLVESGGGLVQPGGSLSLSCTASETISSTYIMGWHRRSPGKERELVAVISGDGVTHYADFVKGRFVISRDNAKNAVYLKMNFLTPEDTAVYYCYAAGRWNHWGQGTQVTVSS
notes: not shown: Fc segment of the comparator
[5]
  Kd: 0.29 nM

B3: 5-C12-FC1 (chimeric nanobody: 5-C12 VHH fused with human Fc mutant fragment FC1) (Fc fusion)
chain: QVQLVESGGGLAQAGGSLRLSCAGSGRTFSTDAMGWFRQAPGKEREFVAAINWSGGSTYYADSVKGRFTISRDNAKNTVYLQMNSVKPEDTAVYYCVADSLLALLDGSRGGPGTDSDSWGQGTQVTVSSEPKSSDKTHTCPPCPAPEFEGGPSVFLFPPKPKDTLMISRTPEVTCVVVDVSHEDPEVKFNWYVDGVEVHNAKTKPREEQYNSTYRVVSVLTVLHQDWLNGKEYKCKVSNKALPASIEKTISKAKGQPREPQVYTLPPSRDELTKNQVSLTCLVKGFYPSDIAVEWESNGQPENNYKTTPPVLDSDGSFFLYSKLTVDKSRWQQGNVFSCSVMHEALHNHYTQKSLSLSPGK
notes: built from the VHH and FC1
[3]
  EC50: 470 ng/mL
[4]
  Kd: 0.001 nM

B4: 4-C05-FC1 (chimeric nanobody: 4-C05 VHH fused with human Fc mutant fragment FC1) (Fc fusion)
chain: QVQLVESGGGLVQPGGSLRLSCAASGFTLDTYAIGWIRQAPGKEREGVSCISSTDGSTYYAASVKGRFTINRDNAKNTVYLQMNSLKPEDTAVYYCAAGPGTDCPLRFDYWGQGIQVTVSSEPKSSDKTHTCPPCPAPEFEGGPSVFLFPPKPKDTLMISRTPEVTCVVVDVSHEDPEVKFNWYVDGVEVHNAKTKPREEQYNSTYRVVSVLTVLHQDWLNGKEYKCKVSNKALPASIEKTISKAKGQPREPQVYTLPPSRDELTKNQVSLTCLVKGFYPSDIAVEWESNGQPENNYKTTPPVLDSDGSFFLYSKLTVDKSRWQQGNVFSCSVMHEALHNHYTQKSLSLSPGK
notes: built from the VHH and FC1
[3]
  EC50: 700 ng/mL
[4]
  Kd: 0.2 nM

B5: 4-C08-FC1 (chimeric nanobody: 4-C08 VHH fused with human Fc mutant fragment FC1) (Fc fusion)
chain: DVQLVESGGGLVQPGGSLRLSCAVSGFSLSSYDMNWYRQGPGKEREWVANIHSSGGYPDYADAVKGRFTISRDNAKNMVYLQMNSLKPEDTAVYYCNLPPSRRWYKDYWGQGTQVTVSSEPKSSDKTHTCPPCPAPEFEGGPSVFLFPPKPKDTLMISRTPEVTCVVVDVSHEDPEVKFNWYVDGVEVHNAKTKPREEQYNSTYRVVSVLTVLHQDWLNGKEYKCKVSNKALPASIEKTISKAKGQPREPQVYTLPPSRDELTKNQVSLTCLVKGFYPSDIAVEWESNGQPENNYKTTPPVLDSDGSFFLYSKLTVDKSRWQQGNVFSCSVMHEALHNHYTQKSLSLSPGK
notes: built from the VHH and FC1
[3]
  EC50: 50 ng/mL

B6: 5-H3-FC1 (chimeric nanobody: 5-H3 VHH fused with human Fc mutant fragment FC1) (Fc fusion)
chain: QVQLVESGGGLVQPGGSLRLSCVASGFTLANYAIGFYRRAPGKGREGVSCISRSDGDTYHVDSVKGRFTVSRDNAKNTAYLQMNSLVPEDTGVYYCRATEWCGVQDPHGYWGQGTQVTVSSEPKSSDKTHTCPPCPAPEFEGGPSVFLFPPKPKDTLMISRTPEVTCVVVDVSHEDPEVKFNWYVDGVEVHNAKTKPREEQYNSTYRVVSVLTVLHQDWLNGKEYKCKVSNKALPASIEKTISKAKGQPREPQVYTLPPSRDELTKNQVSLTCLVKGFYPSDIAVEWESNGQPENNYKTTPPVLDSDGSFFLYSKLTVDKSRWQQGNVFSCSVMHEALHNHYTQKSLSLSPGK
notes: built from the VHH and FC1
[3]
  EC50: 250 ng/mL
[4]
  Kd: 0.45 nM

B7: 4-A02-ABD-MMAE (4-A02-ABD coupled to mc-vc-MMAE) (other)
chain: QVQLVESGGGLVQPGGSLSLSCTASETISSTYIMGWHRRSPGKERELVAVISGDGVTHYADFVKGRFVISRDNAKNAVYLKMNFLTPEDTAVYYCYAAGRWNHWGQGTQVTVSSGGGGSGGGGSGGGGSQHDEAVDANSLAEAKVLANRELDKYGVSDYYKNLINNAKTVEGVKALIDEILAALPAAACAAAHHHHHH
modifications: mc-vc-MMAE coupled to a cysteine thiol after TCEP reduction; DAR 1; position not stated
[6]
  Cell proliferation inhibition IC50, BxPC3 cells (MTS): 0.3 ng/mL
  Cell proliferation inhibition IC50, H1975 cells (MTS): 163 ng/mL
  Cell proliferation inhibition IC50, HCC44 cells (MTS): 79.4 ng/mL
  Cell proliferation inhibition IC50, HPAF-II cells (MTS): 1.3 ng/mL
  Cell proliferation inhibition IC50, PC9 cells (MTS): 5 ng/mL

B8: 4-A02-ABD-MMAE: NDC of 4-A02-ABD (monomer) coupled to mc-vc-MMAE, DAR1 (conjugate)
chain: B7 chain
[7]; 3 mg/kg intravenous
  inhibition of tumor growth: significant inhibition of tumor growth and caused tumor regression
[8]
  anti-tumor effect (tumor volume): complete tumor regression

B9: 4-A02-FC1-MMAE (4-A02-FC1 coupled to mc-vc-MMAE) (Fc fusion)
chain: QVQLVESGGGLVQPGGSLSLSCTASETISSTYIMGWHRRSPGKERELVAVISGDGVTHYADFVKGRFVISRDNAKNAVYLKMNFLTPEDTAVYYCYAAGRWNHWGQGTQVTVSSEPKSSDKTHTCPPCPAPEFEGGPSVFLFPPKPKDTLMISRTPEVTCVVVDVSHEDPEVKFNWYVDGVEVHNAKTKPREEQYNSTYRVVSVLTVLHQDWLNGKEYKCKVSNKALPASIEKTISKAKGQPREPQVYTLPPSRDELTKNQVSLTCLVKGFYPSDIAVEWESNGQPENNYKTTPPVLDSDGSFFLYSKLTVDKSRWQQGNVFSCSVMHEALHNHYTQKSLSLSPGK
modifications: mc-vc-MMAE coupled to cysteine thiols after TCEP reduction; target DAR 4 for the dimer (about 95% DAR4 by HIC); positions not given
[6]
  Cell proliferation inhibition IC50, BxPC3 cells (MTS): 0.8 ng/mL
  Cell proliferation inhibition IC50, H1975 cells (MTS): 2.2 ng/mL
  Cell proliferation inhibition IC50, HCC44 cells (MTS): 2.2 ng/mL
  Cell proliferation inhibition IC50, HPAF-II cells (MTS): 0.2 ng/mL
  Cell proliferation inhibition IC50, PC9 cells (MTS): 0.4 ng/mL
[9]
  Cell proliferation inhibition IC50, BxPC3 cells (MTS): 0.1 ng/mL
  Cell proliferation inhibition IC50, HCC1806 cells (MTS): 0.1 ng/mL
  Cell proliferation inhibition IC50, HPAF-II cells (MTS): 0.7 ng/mL

B10: 4-A02-DXd (conjugate)
chain: B9 chain
[7]; 10 mg/kg intravenous
  inhibition of tumor growth: significant inhibition of tumor growth and caused tumor regression

B11: 4-A02-FC1-DXd (4-A02-FC1 coupled to GGFG-DXd) (Fc fusion)
chain: B9 chain
modifications: GGFG-DXd coupled to cysteine thiols after TCEP reduction; DAR 4; positions not given
[6]
  Cell proliferation inhibition IC50, BxPC3 cells (MTS): 2.5 ng/mL
  Cell proliferation inhibition IC50, H1975 cells (MTS): > 15000 ng/mL
  Cell proliferation inhibition IC50, HCC44 cells (MTS): 19.1 ng/mL
  Cell proliferation inhibition IC50, HPAF-II cells (MTS): 2.4 ng/mL
  Cell proliferation inhibition IC50, PC9 cells (MTS): 5630 ng/mL

B12: 4-A02-FC1 (chimeric nanobody: 4-A02 VHH fused with human Fc mutant fragment FC1) (Fc fusion)
chain: B9 chain
notes: VHH-Fc fusion expressed in HEK293; also called chimeric antibody 4-A02
[3]
  EC50: 80 ng/mL
[4]
  Kd: 2.09 nM

B13: 4-E04-FC1 (chimeric nanobody: 4-E04 VHH fused with human Fc mutant fragment FC1) (Fc fusion)
chain: B9 chain with Q1A, T23A, T27M, H37Y, A60G, V68A, A74V, Y96N, W101R
notes: built from the VHH and FC1
[3]
  EC50: 130 ng/mL
[4]
  Kd: 7.04 nM
